B1: ovalbumin (protein, UniProt P01012 2-386, looked up)
Ovalbumin: GSIGAASMEFCFDVFKELKVHHANENIFYCPIAIMSALAMVYLGAKDSTRTQINKVVRFDKLPGFGDSIEAQCGTSVNVHSSLRDILNQITKPNDVYSFSLASRLYAEERYPILPEYLQCVKELYRGGLEPINFQTAADQARELINSWVESQTNGIIRNVLQPSSVDSQTAMVLVNAIVFKGLWEKAFKDEDTQAMPFRVTEQESKPVQMMYQIGLFRVASMASEKMKILELPFASGTMSMLVLLPDEVSGLEQLESIINFEKLTEWTSSNVMEERKIKVYLPRMKMEEKYNLTSVLMAMGITDVFSSSANLSGISSAESLKISQAVHAAHAEINEAGREVVGSAEAGVDAASVSEEFRADHPFLFCIKHIATNAVLFFGRCVSP
notes: model protein antigen (Sigma Aldrich)

Assay: Overall electrostatic charge of lipopeptide or protein antigen
Type: physicochemical

Molecule | overall charge | overall negative charge
hen egg lysozyme [HEL] | +8 | 
B1 |  | 11

From patent publication US9889195B2, “Immunogenic composition and uses thereof” (THE UNIVERSITY OF MELBOURNE, priority 2009, dated 2018)
